For assay [1], the target named is CD88-N-term peptide ABCF-1 (biotinylated C5aR peptide) (UniProt P21730). Description: C5aR peptide ELISA, lysate. On the technique in general: In an ELISA, binding on a coated surface is turned into a signal by an enzyme label.
Assay [2] shares this target. Description: C5aR peptide ELISA.
Assay [3] addresses human C5a receptor (C5aR) (human) (UniProt P21730).
For assay [4] the target is unchanged. Description: flow cytometry on U937/C5aR cells, 2H7 detection. On the technique in general: Flow cytometry measures light scatter and fluorescence of single cells or particles in a stream.
For assay [5] the target is unchanged. Description: dual fMLP-F/α-C5aR-PE flow cytometry on neutrophils.

The results in this text go back to US20100298539A1.

Several values for one entry are separate records, joined by “and”; a condition that tells them apart may be missing. Identical values can stand only once.

Chain of CD88-N-term peptide ABCF-1 (biotinylated C5aR peptide) (P21730 7-28 limits assumed): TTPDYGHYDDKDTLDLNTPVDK
Chain of human C5a receptor (C5aR) (human) (P21730 whole entry): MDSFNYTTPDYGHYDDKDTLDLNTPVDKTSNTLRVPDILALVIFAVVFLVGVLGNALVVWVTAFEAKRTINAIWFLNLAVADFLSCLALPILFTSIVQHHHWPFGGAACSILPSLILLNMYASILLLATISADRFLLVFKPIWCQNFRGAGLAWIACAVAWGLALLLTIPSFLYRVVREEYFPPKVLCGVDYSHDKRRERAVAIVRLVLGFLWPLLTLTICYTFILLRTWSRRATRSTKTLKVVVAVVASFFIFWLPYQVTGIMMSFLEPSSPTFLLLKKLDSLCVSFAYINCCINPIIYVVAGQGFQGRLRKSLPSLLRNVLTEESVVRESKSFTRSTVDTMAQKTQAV

For the substance “CHIPS E67A (from UniProt A6QIG7 29-149) (other; other documents disagree on this pair)”, the pept-ELISA bindn (%) in assay [1] is 52% and 39%. The substance “CHIPS G33A (from UniProt A6QIG7 29-149) (other; other documents disagree on this pair)” came in with a pept-ELISA bindn (%) in assay [1] of 13%. Same read-out and setting: with “CHIPS G52A (from UniProt A6QIG7 29-149) (other; other documents disagree on this pair)” the figure was 19% and 20%. For the substance “CHIPS K69A control (lysate), A6QIG7 29-140”, in assay [2], the specific activity (%) was 116%. Moreover, in assay [1], the Abs 492 nm was 1.41 and 1.39; the Pep. bind. is 126 ng/mL and 120 ng/mL; the Pep. bind. Log (ng/ml) was 2.1 log ng/ml and 2.08 log ng/ml; the Spec. activity pep/expr (%) is 116% and 112%. In addition, the pept-ELISA bindn (%) in assay [1] came to 15%. Turning to “CHIPS L34A (from UniProt A6QIG7 29-149) (other; other documents disagree on this pair)”, in assay [1], the pept-ELISA bindn (%) was 13% and 12%. Still for that read-out and setting: with “CHIPS L76A (from UniProt A6QIG7 29-149) (other; other documents disagree on this pair)” the figure was 1% and 2%; with “CHIPS L90A (from UniProt A6QIG7 29-149) (other; other documents disagree on this pair)”, 25% and 24%. For “CHIPS N31A (from UniProt A6QIG7 29-149) (other; other documents disagree on this pair)”, the pept-ELISA bindn (%) in assay [1] is 16% and 23%.

“CHIPS N55A (from UniProt A6QIG7 29-149) (other; other documents disagree on this pair)”: the pept-ELISA bindn (%) in assay [1] is 8% and 9%. Turning to “CHIPS P35A (from UniProt A6QIG7 29-149) (other; other documents disagree on this pair)”, the pept-ELISA bindn (%) in assay [1] was 54% and 68%. As for “CHIPS P79A (from UniProt A6QIG7 29-149) (other; other documents disagree on this pair)”, in assay [1], the pept-ELISA bindn (%) is 28% and 25%. As for “CHIPS Q58A (from UniProt A6QIG7 29-149) (other; other documents disagree on this pair)”, the pept-ELISA bindn (%) in assay [1] is 2% and 3%. With “CHIPS S32A (from UniProt A6QIG7 29-149) (other; other documents disagree on this pair)”, the pept-ELISA bindn (%) in assay [1] was found to be 15%. Take “CHIPS S56A (from UniProt A6QIG7 29-149) (other; other documents disagree on this pair)”: in assay [1], the pept-ELISA bindn (%) was 18% and 16%. In assay [1], “CHIPS S107A (from UniProt A6QIG7 29-149) (other; other documents disagree on this pair)” returned a pept-ELISA bindn (%) of 11%. “CHIPS T53A (from UniProt A6QIG7 29-149) (other; other documents disagree on this pair)” registered a pept-ELISA bindn (%) in assay [1] of 7%. For “CHIPS Y48A (from UniProt A6QIG7 29-149) (other; other documents disagree on this pair)”, the pept-ELISA bindn (%) in assay [1] is 86% and 70%. In assay [1], “CHIPS Y108A (from UniProt A6QIG7 29-149) (other; other documents disagree on this pair)” registered a pept-ELISA bindn (%) of 1%. Regarding “CHIPS clone 1F8 (Y48H, D83G, L90P), A6QIG7 29-140”, the specific activity (%) in assay [2] is 93%. Take “CHIPS clone 2C9 (K54R, K69R, K100R, K105R), A6QIG7 29-140”: in assay [2], the specific activity (%) was found to be 115%. Take “CHIPS clone 2D5 (K40E, K69A, N111K, G112V), A6QIG7 29-138”: in assay [2], the specific activity (%) worked out at 132%. Consider “CHIPS clone 2H5 (K69A, K100R, K101R), A6QIG7 29-140”, for which the specific activity (%) in assay [2] was 113%. The same measure, in the same setting: with “CHIPS clone 3C4 (K69A, G112V), A6QIG7 29-139” the figure was 94%; with “CHIPS clone 3H1 (G112V) (from UniProt A6QIG7 29-139) (other; other documents disagree on this pair)”, 109%. Turning to CHIPS clone 4E5 (K69T), A6QIG7 29-140, the specific activity (%) in assay [2] came to 76%.

As for CHIPS clone 5H1 (K50N), A6QIG7 29-140, the specific activity (%) in assay [2] stood at 88%. For CHIPS clone 6E1 (S104Y), A6QIG7 29-140, the specific activity (%) in assay [2] came out at 76%. In the case of “CHIPS clone 7B3 (N111I) (from UniProt A6QIG7 29-140) (other; other documents disagree on this pair)”, the specific activity (%) in assay [2] was determined as 140%.

As to “CHIPS clone 7E4 (K40N, K92R), A6QIG7 29-140”, in assay [2], the specific activity (%) was determined as 65%. Turning to “CHIPSwt control (lysate) (from UniProt A6QIG7 29-149) (other; other documents disagree on this pair)”, the specific activity (%) in assay [2] was found to be 106%. In assay [1], the Abs 492 nm was 1.48 and 1.41; the Pep. bind. was 155 ng/mL and 126 ng/mL; the Pep. bind. Log (ng/ml) was 2.19 log ng/ml and 2.1 log ng/ml; the Spec. activity pep/expr (%) is 119% and 106%. For the same substance, the pept-ELISA bindn (%) in assay [1] is 21%.

For “Chemotaxis Inhibitory Protein of Staphylococcus aureus (CHIPS), wildtype, amino acids 1-121 (from UniProt A6QIG7 29-149)”, the IC50 (read off the curve) in assay [3] worked out at 0.07 ng/mL. The same substance had a Binding U937cells C5aR (0.3 µg/ml) % of wt 1-112 in assay [4] of 28%. For the same substance, the Dual bind PMN (%) in assay [5] came to 112%.
